The values that follow come from publication PMC7111185 (Biochemical and Biophysical Research Communications, 2004).

The target of the assay is 30a-HR1 (His-tagged heptad repeat 1 region of SARS-CoV spike protein, amino acids 898-1005) (SARS-CoV, UniProt P59594 898-1005). The assay is described as follows: pull-down.

Take GDISGINASVVNIQKEIDRLNEVAKNLNESLIDLQELG (domain or fragment) [GST-HR2-38 (GST fusion of SARS-CoV spike HR2, amino acids 1149-1186)]: the binding result is “binds”.
